Data from publication PMC8792056 (2022).

B1: DNAJB14-FL-FLAG [human] / DNAJB12-FL-mOrange [human] (parent complex)
chain 1: MEGNRDEAEKCVEIAREALNAGNREKAQRFLQKAEKLYPLPSARALLEIIMKNGSTAGNSPHCRKPSGSGDQSKPNCTKDSTSGSGEGGKGYTKDQVDGVLSINKCKNYYEVLGVTKDAGDEDLKKAYRKLALKFHPDKNHAPGATDAFKKIGNAYAVLSNPEKRKQYDLTGNEEQACNHQNNGRFNFHRGCEADITPEDLFNIFFGGGFPSGSVHSFSNGRAGYSQQHQHRHSGHEREEERGDGGFSVFIQLMPIIVLILVSLLSQLMVSNPPYSLYPRSGTGQTIKMQTENLGVVYYVNKDFKNEYKGMLLQKVEKSVEEDYVTNIRNNCWKERQQKTDMQYAAKVYRDDRLRRKADALSMDNCKELERLTSLYKGG
chain 2: MESNKDEAERCISIALKAIQSNQPDRALRFLEKAQRLYPTPRVRALIESLNQKPQTAGDQPPPTDTTHATHRKAGGTDAPSANGEAGGESTKGYTAEQVAAVKRVKQCKDYYEILGVSRGASDEDLKKAYRRLALKFHPDKNHAPGATEAFKAIGTAYAVLSNPEKRKQYDQFGDDKSQAARHGHGHGDFHRGFEADISPEDLFNMFFGGGFPSSNVHVYSNGRMRYTYQQRQDRRDNQGDGGLGVFVQLMPILILILVSALSQLMVSSPPYSLSPRPSVGHIHRRVTDHLGVVYYVGDTFSEEYTGSSLKTVERNVEDDYIANLRNNCWKEKQQKEGLLYRARYFGDTDMYHRAQKMGTPSCSRLSEVQASLHG

Variants of: B1
Assay: co-IP (IP: FLAG, WB: mOrange), densitometry with Fiji; HEK293T cells; n = 3 biologically independent samples; parent: 2.7; read off a plot

Variant | response
chain 1 H136Q | ~7.2 [ORANGE]/[FLAG]
